This is an account of results in PMC11327020.

In the test the target is CXCR4 on THP-1 cells (human (endogenous in THP-1)) (UniProt P61073).
UniProt P61073, sequence (P61073 whole entry): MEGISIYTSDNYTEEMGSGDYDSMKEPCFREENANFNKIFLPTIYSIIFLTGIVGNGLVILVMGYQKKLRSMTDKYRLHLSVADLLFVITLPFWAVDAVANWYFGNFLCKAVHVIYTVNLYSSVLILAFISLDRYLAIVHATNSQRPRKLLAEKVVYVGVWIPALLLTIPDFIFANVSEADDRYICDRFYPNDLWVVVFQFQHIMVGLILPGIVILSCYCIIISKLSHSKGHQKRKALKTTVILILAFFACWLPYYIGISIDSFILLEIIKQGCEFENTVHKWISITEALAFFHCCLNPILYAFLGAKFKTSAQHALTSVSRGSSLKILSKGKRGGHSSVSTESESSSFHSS

The substance “Recombinant human stromal cell-derived factor-1 (SDF-1/CXCL12), intact (from UniProt P48061 22-93) (ligand)” registered a CXCR4 internalization (loss of surface CXCR4 by flow cytometry) in THP-1 cells, 100 ng/mL SDF-1 for 15 minutes; uncut SDF-1, and SDF-1 pre-incubated with COAM 100x before protease at similar levels (% of receptor internalization) of 25.
